Test results published in US20210008175A1, “BACTERIOPHAGE LYSIN AND ANTIBIOTIC COMBINATIONS AGAINST GRAM POSITIVE BACTERIA” (priority 2012, published 2021).

Columns and labels:
[1] = tested on: MRSA strain ATCC 700699 and MSSA strain ATCC 25923; experiment: microbe, parasite or virus in culture; assay type: cell-based, Staphylococcus aureus
S. aureus cocci = experiment: Electron microscopy of bacteriolysis; assay type: cell-based; settings: after only 15 seconds of treatment
Klebsiella spp. = experiment: MIC, sensitivity of human gut bacteria; assay type: cell-based; settings: N 8
MRSA S. aureus strains = experiment: Dual agent MIC assay (PlySs2 and daptomycin together, broth microdilution); assay type: cell-based; settings: for MIC combo: PlySs2 and daptomycin combined; for MIC alone: single-agent
[2] = tested on: Staphylococcus aureus (MRSA and MSSA strains); experiment: Synergy time-kill assay (6 hours, combination compared to most active single agent); assay type: cell-based; settings: ½ MIC PlySs2 or ¼ MIC vancomycin alone, up to 6 hours
Lactococcus spp. = experiment: MIC, sensitivity of human gut bacteria; assay type: cell-based; settings: N 3
Streptococcus pneumoniae = experiment: MIC, broth microdilution (CLSI M07-A9); assay type: cell-based; settings: 26 tested
[3] = tested on: MRSA strain MW2 and MSSA strain ATCC 29213; experiment: MIC in the presence of surfactant (Survanta), broth microdilution; assay type: cell-based, Staphylococcus aureus; settings: range from 1.25 to 15% surfactant
MRSA strain 269 (MW2) = experiment: Combination MIC study in the presence of 15% surfactant (Survanta); assay type: cell-based, Staphylococcus aureus; settings: PlySs2 plus daptomycin
Enterococcus faecalis = experiment: MIC, broth microdilution (CLSI M07-A9); assay type: cell-based; settings: 17 tested
S. aureus = experiment: Murine bacteremia model, survival; assay type: in vivo, BALB/c mice; settings: for 24 hour survival rate / 72 hour survival rate: high challenge (10^9 CFU MRSA MW2), dosing at 2 hours
Staphylococcus aureus = experiment: MIC, broth microdilution (CLSI M07-A9); assay type: cell-based; settings: for MIC90 / MIC90 [uM]: with reducing agent
MRSA = experiment: Murine bacteremia model, MRSA CFUs in the blood; assay type: in vivo, mice; settings: 5.25 mg/kg PlySs2 at 2-hours post-infection
[4] = tested on: Streptococcus agalactiae, Group B; experiment: MIC, broth microdilution (CLSI M07-A9); assay type: cell-based; settings: 51 tested
[5] = tested on: Staphylococcus lugdiensis; experiment: MIC, broth microdilution (CLSI M07-A9); assay type: cell-based; settings: 10 tested
Listeria monocytogenes = experiment: MIC, broth microdilution (CLSI M07-A9); assay type: cell-based; settings: 12 tested
Streptococcus mutans = experiment: MIC, broth microdilution (CLSI M07-A9); assay type: cell-based; settings: 12 tested
[6] = tested on: Streptococcus pyogenes, Group A; experiment: MIC, broth microdilution (CLSI M07-A9); assay type: cell-based; settings: 54 tested
Enterococcus faecium = experiment: MIC, broth microdilution (CLSI M07-A9); assay type: cell-based; settings: 5 tested
Bacillus cereus = experiment: MIC, broth microdilution (CLSI M07-A9); assay type: cell-based; settings: 10 tested
[7] = tested on: MRSA Staphylococcus aureus strain (MW2); experiment: microbe, parasite or virus in culture; assay type: cell-based
Acinetobacter baumannii = experiment: MIC, broth microdilution (CLSI M07-A9); assay type: cell-based; settings: 8 tested
[8] = tested on: Staphylococcus aureus (MRSA and MSSA strains); experiment: Time kill assay, single agents at 1×MIC (CLSI); assay type: cell-based
[9] = daptomycin 50 mg/kg once daily, PlySs2 5.25 mg/kg (FIG. 27B)
[10] = vancomycin 110 mg/kg twice daily, PlySs2 5.25 mg/kg (FIG. 27E)

B1: PlySs2: bacteriophage lysin derived from Streptococcus suis, amino acid sequence of FIG. 29 (SEQ ID NO: 1), N-terminal CHAP and C-terminal SH3 domain (protein, listed as Streptococcus suis)
chain: MTTVNEALNNVRAQVGSGVSVGNGECYALASWYERMISPDATVGLGAGVGWVSGAIGDTISAKNIGSSYNWQANGWTVSTSGPFKAGQIVTLGATPGNPYGHVVIVEAVDGDRLTILEQNYGGKRYPVRNYYSAASYRQQVVHYITPPGTVAQSAPNLAGSRSYRETGTMTVTVDALNVRRAPNTSGEIVAVYKRGESFDYDTVIIDVNGYVWVSYIGGSGKRNYVATGATKDGKRFGNAWGTFK
[1]; over 21 days of in vitro growth
  MIC in daptomycin resistant clones: 2 to 4 mg/L
[1]; start of serial passage
  MIC before daptomycin resistance selection: 8 mg/L
S. aureus cocci
  bacteriolysis by electron microscopy: extensive bacteriolysis
Klebsiella spp.
  CF-301 MIC: >512 mg/L
MRSA S. aureus strains; MRSA strain 223
  Fold reduction: 4
  MIC combo: 0.5 mg/L
  MIC alone: 2 mg/L
MRSA S. aureus strains; MRSA strain 241
  Fold reduction: 2
  MIC combo: 2 mg/L
  MIC alone: 4 mg/L
MRSA S. aureus strains; MRSA strain 263
  Fold reduction: 4
  MIC combo: 2 mg/L
  MIC alone: 8 mg/L
MRSA S. aureus strains; MRSA strain 269 (MW2)
  Fold reduction: 4
  MIC combo: 2 mg/L
  MIC alone: 8 mg/L
MRSA S. aureus strains; MRSA strain 270
  Fold reduction: 4
  MIC combo: 2 mg/L
  MIC alone: 8 mg/L
MRSA S. aureus strains; MRSA strain 553
  Fold reduction: 2
  MIC combo: 1 mg/L
  MIC alone: 2 mg/L
MRSA S. aureus strains; MRSA strain 650
  Fold reduction: 2
  MIC combo: 4 mg/L
  MIC alone: 8 mg/L
MRSA S. aureus strains; MRSA strain 827
  Fold reduction: 2
  MIC combo: 4 mg/L
  MIC alone: 8 mg/L
MRSA S. aureus strains; MRSA strain 828
  Fold reduction: 4
  MIC combo: 2 mg/L
  MIC alone: 8 mg/L
MRSA S. aureus strains; MRSA strain 829
  Fold reduction: 2
  MIC combo: 4 mg/L
  MIC alone: 8 mg/L
MRSA S. aureus strains; MRSA strain 830
  Fold reduction: 2
  MIC combo: 2 mg/L
  MIC alone: 4 mg/L
MRSA S. aureus strains; MRSA strain 833
  Fold reduction: 4
  MIC combo: 2 mg/L
  MIC alone: 8 mg/L
MRSA S. aureus strains; PlySs2 and daptomycin together, a dozen MRSA strains
  fold reduction in the effective MIC: 2-4 fold
[2]
  effectiveness alone at sub-MIC doses: ineffective or poorly effective
Lactococcus spp.
  CF-301 MIC: >512 mg/L
Streptococcus pneumoniae
  MIC 50%: 16 mg/L
  MIC 90%: 64 mg/L
  MIC Range: 1 to 64 mg/L
[3]
  inhibition of MIC by surfactant: 8 fold
MRSA strain 269 (MW2)
  effective concentration in combination as fraction of MIC: ⅛
  most dilute concentration in combination that still inhibits growth: 2 µg/mL
Enterococcus faecalis
  MIC 50%: >512 mg/L
  MIC 90%: >512 mg/L
S. aureus; 5 mg/kg dose
  protection: significant protection
S. aureus; dose-response, as little as
  dose giving survival enhancement over mock-injected control: 0.25 mg/kg
S. aureus; [9]
  24 hour survival rate: 56%
  72 hour survival rate: 18%
S. aureus; [10]
  24 hour survival rate: 60%
  72 hour survival rate: 3%
S. aureus; low challenge model (up to 7×10^6 CFU MRSA MW2), single dose at 4 hours, PlySs2 1.25 mg/kg, daptomycin 2 mg/kg
  survival at 72 hours: 13%
Staphylococcus aureus; DRSA (n = 8)
  MIC90: 4
  MIC90 [uM]: 0.15 µM
Staphylococcus aureus; Daptomycin-resistant (8)
  MIC 90%: 4
Staphylococcus aureus; LRSA (n = 5)
  MIC90: 2
  MIC90 [uM]: 0.08 µM
Staphylococcus aureus; Linezolid-resistant (5)
  MIC 90%: 2
Staphylococcus aureus; MRSA (n = 45)
  MIC90: 4
  MIC90 [uM]: 0.15 µM
Staphylococcus aureus; MSSA (n-28)
  MIC90: 4
  MIC90 [uM]: 0.15 µM
Staphylococcus aureus; Methicillin resistant (120)
  MIC 50%: 4 mg/L
  MIC 90%: 8 µg/mL
  MIC Range: 1 to 16 mg/L
Staphylococcus aureus; Methicillin susceptible (103)
  MIC 50%: 4 mg/L
  MIC 90%: 8 µg/mL
  MIC Range: 1 to 16 mg/L
Staphylococcus aureus; VISA (n = 10)
  MIC90: 32
  MIC90 [uM]: 1.2 µM
Staphylococcus aureus; VRSA (n = 14)
  MIC90: 2
  MIC90 [uM]: 0.08 µM
Staphylococcus aureus; Vancomycin-intermediate (31)
  MIC 90%: 32
Staphylococcus aureus; Vancomycin-resistant (14)
  MIC 90%: 4
Staphylococcus aureus; all strains tested including 103 MSSA and 120 MRSA isolates
  MIC: 8 mg/L
Staphylococcus aureus; strain MW2, without DTT
  MIC: 32 mg/L
MRSA; in 15 minutes
  decrease in CFUs in blood: 0.5 log10
MRSA; within 60 minutes of treatment
  decrease in CFUs in blood: 2 log
[4]
  MIC 50%: 8 mg/L
  MIC 90%: 16 mg/L
  MIC Range: 1 to 64 mg/L
[5]
  MIC 50%: 8 mg/L
  MIC 90%: 8 mg/L
  MIC Range: 8 mg/L
Listeria monocytogenes
  MIC 50%: 128 mg/L
  MIC 90%: 512 mg/L
  MIC Range: 1 to 512 mg/L
Streptococcus mutans
  MIC 50%: 64 mg/L
  MIC 90%: 256 mg/L
  MIC Range: 2 to 256 mg/L
[6]
  MIC 50%: 2 mg/L
  MIC 90%: 8 mg/L
  MIC Range: 0.5 to 8 mg/L
Enterococcus faecium
  MIC 50%: >512 mg/L
  MIC 90%: >512 mg/L
Bacillus cereus
  MIC 50%: >512 mg/L
  MIC 90%: >512 mg/L
  MIC Range: >512 mg/L
[7]; sub-MIC PlySs2 (4 ug/ml)
  suppression of daptomycin resistance relative to daptomycin alone: 8 to 16 fold
[7]; sub-MIC PlySs2 (8 ug/ml)
  suppression of vancomycin resistance relative to vancomycin alone: 4 to 8 fold
Acinetobacter baumannii
  MIC 50%: >512 mg/L
  MIC 90%: >512 mg/L
  MIC Range: >512 mg/L
[8]; 1×MIC, 20 MSSA and 42 MRSA strains
  time to reach bactericidal levels (≥3-log10 reduction in CFUs): ≤ 30 minutes
[8]; all MRSA and MSSA strains tested, generally within the first hour of incubation
  maximal kill (log reduction): ≥ 3 log
